Data published in the supplement of paper PMC10567573.

B1: ZNF649 (parent)
chain: LVAHQRYHTGKTPFVCPECGQPCS

Variants of: B1
Experiment: protein stability index of a GFP-peptide fusion (GPS, HEK-293T) (PSI 1-6); higher = more stable
Settings: c terminus: a fixed tail appended
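Further: lentivirally expressed fusions sorted by FACS into six bins by GFP to DsRed ratio, PSI derived from sequencing read proportions per bin multiplied by bin number.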

Variant | protein stability index
C16A | 2.35
C16Q | 3.03
C16F | 2.28
C16G | 2.91
C16I | 2.14
C16H | 2.64
C16S | 3.16
C16M | 2.72
C16L | 2.5
C16E | 3.01
C16R | 2.89
C16N | 2.88
C16K | 2.75
C16P | 3.48
C16D | 3.8
P13L | 2.62
P13C | 2.71
P13V | 3.32
P13F | 2.8
P13S | 3.65
P13E | 3.7
P13I | 2.76
P13K | 3.36
P13H | 3.36

Variant | protein stability index
P13G | 2.94
P13N | 3.64
P13Q | 3.32
P13M | 3.27
P13W | 3.63
P13Y | 3.26
P13R | 3.31
P13A | 2.94
P13D | 3.46
P13T | 4.15
G10I | 3.5
G10C | 3.44
G10F | 3.44
G10V | 2.85
G10E | 3.57
G10P | 3.09
G10S | 2.4
G10L | 3.64
G10W | 3.9
G10Y | 2.82
G10Q | 3.28
G10T | 3.01
G10M | 3.44
G10D | 3.96

Variant | protein stability index
G10R | 2.78
G10A | 3.15
G10K | 2.83
G10H | 3.24
G10N | 3.37
F14T | 4.22
F14P | 3.58
F14S | 3.93
F14V | 3.81
F14D | 4.18
F14L | 3.7
F14W | 3.1
F14H | 3.02
F14R | 3.38
F14Y | 3
F14E | 4.44
F14M | 3.25
F14A | 3.94
F14I | 3.61
F14G | 4.1
F14C | 3.65
F14N | 3.7
F14Q | 3.38
F14K | 3.28

Variant | protein stability index
K11H | 3.35
K11L | 3.49
K11M | 3.31
K11C | 3.39
K11T | 3.19
K11I | 3.31
K11W | 2.91
K11N | 3.48
K11R | 3.75
K11Y | 3.07
K11V | 4.02
K11F | 2.81
K11P | 3.06
K11E | 3.67
K11D | 3.45
K11G | 3.45
K11Q | 3.67
K11S | 3.77
K11A | 3.98
T9A | 2.77
T9N | 3.05
T9M | 3.16
T9H | 2.6
T9I | 3.77

Variant | protein stability index
T9L | 2.92
T9Q | 3.31
T9E | 3.7
T9C | 2.65
T9D | 3.77
T9Y | 3.31
T9S | 3.1
T9P | 2.88
T9F | 3.62
T9K | 2.52
T9G | 3.53
T9R | 2.76
T9W | 2.9
T9V | 3.06
T12R | 2.91
T12V | 3.13
T12K | 3.15
T12G | 3.04
T12Y | 3.02
T12L | 2.96
T12M | 3.12
T12C | 3.01
T12S | 3.5
T12Q | 2.68

Variant | protein stability index
T12W | 2.96
T12H | 2.56
T12A | 3.49
T12D | 3.06
T12E | 3.86
T12I | 3.7
T12F | 2.77
T12P | 3.2
T12N | 3.39
V15A | 3.33
V15R | 3.06
V15H | 2.4
V15K | 2.42
V15P | 3.77
V15L | 3.2
V15I | 2.74
V15C | 2.88
V15S | 3.19
V15N | 3.51
V15T | 3.11
V15E | 3.66
V15Y | 2.96
V15M | 3.3
V15W | 2.67

Variant | protein stability index
V15G | 3.03
V15D | 3.83
V15Q | 3.36
V15F | 2.76
H8E | 3.13
H8Q | 3.59
H8D | 3.54
H8I | 3.21
H8A | 3.1
H8M | 2.75
H8V | 3.77
H8W | 2.57
H8F | 2.49
H8R | 2.53
H8N | 3.18
H8S | 2.93
H8C | 3.05
H8K | 2.57
H8L | 2.93
H8T | 3.26
H8G | 2.52
H8P | 3.67
H8Y | 2.69
